# From the RNAGym collection of RNA variant scans (doi:10.1073/pnas.2313332121)
# B1: TPR t1 (parent)
# chain: GACCAAUCUGCCCUCAGAGCUCGAGAACAUCUUCGGAUGCAGAGGAGGCAGGCUUCGGUGGCGCGAUAGCGCCAACGUCCUCAACCUCCAAUGCAUCCCACCACAUGAUGAUGCCUGAAGAGCCUUGGUUUUUUG
# Variants of: B1
# Assay: polymerase ribozyme fitness, log enrichment relative to wild type (log ratio); higher = more active; in vitro selection for triplet polymerase activity
# Outline: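 Mutant libraries of each subunit of a heterodimeric triplet polymerase ribozyme were built by PCR and transcribed. Each library went through one round of in vitro selection in triplicate: annealing with biotinylated primer, partner subunit and triplets, frozen incubation at −7 °C, gel excision of extended constructs, streptavidin-bead capture and RT-PCR. Input and output libraries were Illumina-sequenced; only genotypes with ≥10 input reads and ≥1 read per output were kept. Fitness is log2(genotype enrichment/wild-type enrichment), using inverse-variance-weighted replicate averages.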
row,Variant,polymerase ribozyme fitness (log ratio)
1,G69A U131G,-3.12
2,C13G C79U,-2.23
3,G17C C40U A43U U130G,-3.78
4,G69A A91U,-6.02
5,A50U A100C A111G,-2.38
6,A2G U9G U106G U112C U130A,-0.197
7,A100C C124A,0.995
8,C4G C89A,-2.63
9,G63A C79U A83G C123G,0.0609
10,C56G C115U G135C,-1.67
11,C56G U81A U125A,-1.81
12,A5G C8U C72G G110A,-1.25
13,C49U A50U G51A,-2.62
14,A2C C3A U9A C20U G120U,-0.418
15,G52A C72U,-0.913
16,A46U C62U A91U A103G U106A C114U U131G,-6.47
17,G57U U87A A90C C101U C114U U125A,-4.29
18,A111C,0.388
19,A29U G48U C73G U112A,-0.987
20,A74G C98G,-6.09
21,C12U G36U G47U U106G,-5.66

row,Variant,polymerase ribozyme fitness (log ratio)
1,G47A A50U A91C,-4.79
2,A111C A119U,-2.28
3,C15U G25A,-4.87
4,G47U C115U,-2.5
5,A37C G48C,-1.64
6,G117C,-3.16
7,A43G G113C,-3
8,G42A G113A,-2.62
9,G93U U133C,-1.17
10,G39A A43U,-1.78
11,A6U G60U C64U A91G C102G G110U,-7.78
12,G57A C72U,-1.29
13,C22G C73G U133G,-4.48
14,G10U G77A U106G,-2.38
15,A26G C53A C56U G93C U96G,-4.22
16,C11A C70A A90G,-3.13
17,G60A C85U U106G,-3.68
18,A27C C82U C124A,-0.986
19,G45C C53A G120A U129G,-1.07
20,G47A U55A G60C A90U U92A,-4
21,C8G C20G C34U U112A,-5.8

row,Variant,polymerase ribozyme fitness (log ratio)
1,C88A C123U G127U U131G,-0.279
2,C62U A108G,-1.69
3,C28U G61A C64U A121C,-4.25
4,G44A C70U A103U G117U,-5.43
5,G23C C34U U38A A46U C86G G110C,-8.09
6,G48A C62U,-0.525
7,C22G C82G U96A,-3.98
8,G19A C88A A95C C114G,-4.8
9,A27U G60U,-3.37
10,G36C G44C C73U G110C C124U U125A,-4.74
11,A24G G47A C73A,-1.58
12,A6C A41U A43G G57U U130G,-3.78
13,U9A G19U G42A A46G U78C,-4.66
14,G47C G61U,-2.07
15,U9A G47U G63C U130C,0.0031
16,A26U U96A C114U G117A,-5.98
17,C40U A91C C97U C115U,-3.9
18,C99U C101U,-2.29
19,C15G G61C A90G U96A,-6.02
20,C20U G52C,-2.19
21,G48A C70A,-2.36

row,Variant,polymerase ribozyme fitness (log ratio)
1,G36A U96G,-1.67
2,G77A C82A U109A,-4.87
3,C12U A26G G45A A84U U132C,-3.75
4,G45U A46U U106G,-3.7
5,G57A G69U C86A C101G,-2.75
6,G17U C102U,-4.64
7,C13U C15A G60A G113C G135U,-7.27
8,C56G G61C A95G A111U,-6.34
9,A5U G60U,-0.228
10,G71U U131A,0.00469
11,A26U G61U U112C,-2.62
12,C13A C49G C56G U96A,-3.42
13,A18C G71U U78G,-4.63
14,A46G A95U A105U U109A,-6.27
15,G19U G39U G48A A111G,-4.12
16,C76G A95G,-0.229
17,G48U A50U U78C A90U C123A,-2.26
18,C12G G17A C62U C101U,-5.49
19,G48A C85A,-0.739
20,U9A C22U C49A C86A,-5.1
21,C34G U38A G48A C53U A111U,-6
